Literature values as cited in patent publication US20170136096A1, “Insulin-Containing Prolonged-Action Preparation” (OBSCHESTVO S OGRANCHENNOJ OTVETCTVENNOSTU "BIOSABTEK", priority 2014, published 2017).

Conditions: administered under the skin, injection solution pH 4

glargine
duration of flat time-concentration profile: ≤ 24 h
